Assay results as given in patent publication US20250250362A1 (Chugai, published 2025).

Biological target: T1, soluble human GPC3 (human, UniProt P51654 25-563)
T1 construct: range 25-563; whole entry named for human GPC3 (NP_001158089.1); also called glypican 3
Experiment: SPR (Biacore)

T1 sequence (P51654 25-563 limits assumed): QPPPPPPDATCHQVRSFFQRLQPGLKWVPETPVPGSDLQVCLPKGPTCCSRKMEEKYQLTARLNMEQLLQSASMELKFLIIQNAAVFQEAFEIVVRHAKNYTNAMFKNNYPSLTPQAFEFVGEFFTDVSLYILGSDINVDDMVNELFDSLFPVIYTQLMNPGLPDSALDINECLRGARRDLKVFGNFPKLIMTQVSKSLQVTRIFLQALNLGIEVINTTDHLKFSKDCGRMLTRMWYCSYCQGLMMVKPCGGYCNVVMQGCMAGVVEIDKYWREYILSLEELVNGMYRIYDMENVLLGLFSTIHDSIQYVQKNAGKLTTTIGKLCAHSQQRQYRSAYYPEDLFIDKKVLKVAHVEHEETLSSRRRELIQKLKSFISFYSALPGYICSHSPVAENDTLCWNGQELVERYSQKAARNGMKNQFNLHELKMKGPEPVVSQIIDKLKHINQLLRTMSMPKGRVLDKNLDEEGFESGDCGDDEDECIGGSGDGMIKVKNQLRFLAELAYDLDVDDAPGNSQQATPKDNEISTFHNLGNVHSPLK

B1: H0610-G1dh/none-Hi-Kn010G3/L0129-k0 (antibody, V domains shown)
VH: QVQLVQSGAEVKKPGASVKVSCKASGYTFTDYEMHWIRQPPGQGLEWIGAIDGKTPDTAYSQKFKGRVTLTADKSTSTAYMELSSLTSEDTAVYYCTRFYSYTYWGQGTLVTVSS
VL: DIVMTQSPLSLPVTPGEPASISCRSSQSLVHSNRNTYLHWYQQKPGQAPRLLIYKVSNRRSGVPDRFSGSGSGTDFTLKISRVEAEDVGVYYCGQGTQVPYTFGQGTKLEIK
notes: one-arm
Kd: 4.54 nM
